This is an account of results in US20040248765.

In this series the test system is Example (8): 1-[3-(D-Alanyl-L-alanyl-L-alanyl-L-leucyl-glycyl-L-leucyl-L-prolylamino)-propylamino]anthraquinone trifluoroacetate.

human recombinant MMP-9, sequence (chain, as listed by the source): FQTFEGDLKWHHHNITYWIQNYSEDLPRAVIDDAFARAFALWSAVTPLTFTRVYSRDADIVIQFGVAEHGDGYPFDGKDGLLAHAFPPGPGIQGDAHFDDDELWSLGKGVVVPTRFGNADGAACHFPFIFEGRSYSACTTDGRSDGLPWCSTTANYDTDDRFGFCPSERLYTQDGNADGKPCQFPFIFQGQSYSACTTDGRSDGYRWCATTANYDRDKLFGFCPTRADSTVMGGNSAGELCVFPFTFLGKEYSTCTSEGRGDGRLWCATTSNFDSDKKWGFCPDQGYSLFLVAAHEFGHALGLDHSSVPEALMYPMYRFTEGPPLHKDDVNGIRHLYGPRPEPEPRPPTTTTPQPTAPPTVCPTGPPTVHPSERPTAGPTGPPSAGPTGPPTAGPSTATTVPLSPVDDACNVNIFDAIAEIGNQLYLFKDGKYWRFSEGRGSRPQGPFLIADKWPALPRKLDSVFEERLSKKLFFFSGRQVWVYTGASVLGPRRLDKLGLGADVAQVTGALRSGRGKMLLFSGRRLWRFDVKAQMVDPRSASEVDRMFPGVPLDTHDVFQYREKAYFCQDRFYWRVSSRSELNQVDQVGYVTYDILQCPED

Regarding human recombinant MMP-9, the “cleavage of the peptide conjugate by the enzyme, followed by HPLC and MS/MS” value is given as “cleavage to anthraquinonyl, spacer-linked tripeptide Example 4”.
